Test results as given in patent publication US20220242962A1 (APTEVO RESEARCH AND DEVELOPMENT, published 2022).
Substitutions are numbered along the chain they refer to. In names and notes the source's numbering stands. Read-outs that look alike come from different tables or passages of the source.

T1: Full-length Cyno OX40 (cynomolgus monkey, UniProt P43489 29-277 (human entry))
T1 construct: on CHO-K1SV cells; also called OXF004; cynomolgus OX40
T1 chain: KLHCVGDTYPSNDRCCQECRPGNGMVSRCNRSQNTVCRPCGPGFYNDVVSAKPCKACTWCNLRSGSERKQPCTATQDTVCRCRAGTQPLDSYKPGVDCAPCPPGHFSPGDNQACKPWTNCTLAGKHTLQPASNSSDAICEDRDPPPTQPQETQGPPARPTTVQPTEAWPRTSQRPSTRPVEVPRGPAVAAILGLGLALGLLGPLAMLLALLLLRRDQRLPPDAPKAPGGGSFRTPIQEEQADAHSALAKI

T2: Full-length Human OX40 (human, UniProt P43489 29-277)
T2 sequence: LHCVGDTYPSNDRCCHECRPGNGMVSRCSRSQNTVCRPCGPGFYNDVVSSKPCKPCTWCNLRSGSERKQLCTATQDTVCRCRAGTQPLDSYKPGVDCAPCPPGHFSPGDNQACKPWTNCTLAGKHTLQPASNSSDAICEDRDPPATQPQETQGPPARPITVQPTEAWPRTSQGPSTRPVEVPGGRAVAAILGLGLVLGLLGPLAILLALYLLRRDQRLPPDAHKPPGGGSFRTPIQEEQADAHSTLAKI

T3: Human OX40 ECD-AFH (human)
T3 construct: ECD'; entry includes the C-terminal tags; also called OXF003; Human OX40 ECD-avi-flag-his
T3 chain: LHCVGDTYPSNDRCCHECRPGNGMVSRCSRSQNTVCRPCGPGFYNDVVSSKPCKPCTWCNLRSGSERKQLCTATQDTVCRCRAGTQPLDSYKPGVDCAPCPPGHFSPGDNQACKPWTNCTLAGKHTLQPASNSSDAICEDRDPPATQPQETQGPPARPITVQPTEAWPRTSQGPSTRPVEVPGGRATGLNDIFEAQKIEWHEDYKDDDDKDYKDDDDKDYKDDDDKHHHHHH

B1: FXX01066 (bispecific antibody)
chain: EVQLVQSGAEVKKPGASVKVSCKASGYTFTSYWMNWVRQAPGQGLEWMGNIYPSGGSTNYAQKFQGRVTMTVDTSTSTVYMELSSLRSEDTAVYYCASFSDGYYAYAMDYWGQGTLVTVSSGGGGSGGGGSGGGGSGGGGSEIVMTQSPATLSLSPGERATLSCRASQSVSSYLNWYQQKPGQAPRLLIYYASRRHTGIPARFSGSGSGTDFTLTISSLQPEDFAVYYCQQGYNLPYTFGQGTKVEIKEPKSSDKTHTCPPCPAPPAAAPSVFLFPPKPKDTLMISRTPEVTCVVVDVSHEDPEVKFNWYVDGVEVHNAKTKPREEQYNSTYRVVSVLTVLHQDWLNGKEYKCAVSNKALPAPIEKTISKAKGQPREPQVYTLPPSRDELTKNQVSLTCLVKGFYPSDIAVEWESNGQPENNYKTTPPVLDSDGSFFLYSKLTVDKSRWQQGNVFSCSVMHEALHNHYTQKSLSLSPGGGGSPSSYVLTQPPSVSVAPGQTARITCGGNNIGSKSVNWFQQKPGQAPVLVVYDDSGRPSGIPERFSGSTSGNTATLTISRVEAGDEADYYCQVWDSSSDHVVFGGGTKLTVLGGGGSGGGGSGGGGSGGGGSQVQLVESGGGVVQPGRSLRLSCAASGFTLSYYGMHWVRQAPGKGLEWVAAISHDGSDKYYADSVKGRFTISRDNSKNTLYLQMNSLRAEDTAVYYCSNDQFDPWGQGTLVTVSSR
notes: ADAPTIR scFv-Fc-scFv, anti-4-1BB (VH-VL) N-terminal, anti-OX40 C-terminal, PAA (del) Fc; also called FX01066
B2: FXX01102 (bispecific antibody)
chain: B1 chain with Q500K, T690R
notes: ADAPTIR anti-4-1BB (HL) x anti-OX40 with Q17K and T86R; PAA (del) Fc; also called FX01102
B3: FXX01111 (bispecific antibody)
chain: B1 chain with I541V, E543N
notes: ADAPTIR anti-4-1BB x anti-OX40, pI variant; PAA (del) Fc
B4: FXX01115 (bispecific antibody)
chain: B1 chain with I541V, E543N, T690R
notes: as for B3
B5: FXX01119 (bispecific antibody)
chain: B1 chain with Q500K, I541V, E543N, T690R
notes: as for B3
B6: FXX01101 (bispecific antibody)
chain: B1 chain with T690R
notes: ADAPTIR anti-4-1BB (HL) x anti-OX40 with T86R; PAA (del) Fc; also called FX01101

Key:
Full-length Cyno OX40 [1] = target: T1, Full-length Cyno OX40; experiment: flow cytometry on CHOK1SV cells transfected with cynomolgus OX40, goat anti-human Fc secondary antibody, MFI (Mean)
Experimental: FIGS. 12A-12D show the binding of anti-4-1BB x anti-OX40 constructs, with additional humanization in 4-1BB and altered orientations of binding domains, human (12A) or cynomolgus (12C) 4-1BB-expressing Jurkat cells or human (12B) or cynomolgus (12D) OX40-expressing CHOK1SV cells. Serial dilutions of ADAPTIR™ constructs were incubated with transfected cells and subsequently labelled with a fluorescently-conjugated goat-a-human Fc secondary antibody. […] (See Example 19.)
Binding studies were performed using the flow cytometry-based staining procedures described above.

Full-length Human OX40 = target: T2, Full-length Human OX40; experiment: cell-based or functional assay
Full-length Human 4-1BB [2] = target: T4, Full-length Human 4-1BB (human, UniProt Q07011 24-255); experiment: cell-based or functional assay
Full-length Human 4-1BB [3] = target: T4, Full-length Human 4-1BB; experiment: cell-based or functional assay; remark: listed apart in the source
Human 4-1BB ECD-AFH = target: T5, Human 4-1BB ECD-AFH (human); experiment: SPR, construct captured, monomeric ECD as analyte
T5 construct: entry includes the tags; also called FOB003; HUMAN CD137 ECD-AVI-FLAG-HIS
Experimental: (§1) Mouse anti-human IgG (GE, BR-1008-39) at 25 μg/ml in 10 mM sodium acetate pH 5.0 was immobilized at a density of ˜10,000 response units (RU) onto each flow cell of a CM5 research-grade sensor chip (GE) by standard amine coupling chemistry. Each binding protein at approximately 100 nM in HBS-EP+ with 0.2% BSA buffer was captured in a flow cell with the immobilized anti-human IgG at a flow rate of 10 μL/min for 20 seconds, leaving one flow cell surface unmodified as the reference. Using a single-cycle kinetics mode, five different concentrations of ECD were sequentially injected through each flow cell at 30 μL/min for 300 seconds followed by a 600 second dissociation period. Regeneration was achieved by injection of 3 M MgCl₂ at a flow rate of 30 μL/min for 30 seconds followed by HBS-EP+ with 0.2% BSA buffer stabilization for 1 min.
(§2) Sensorgrams obtained from kinetic SPR measurements were analyzed by the double subtraction method. The signal from the reference flow cell was subtracted from the analyte binding response obtained from flow cells with immobilized or captured ligands. Buffer reference responses were then averaged from multiple injections. The averaged buffer reference responses were then subtracted from analyte binding responses, and the final double-referenced data were analyzed with Biacore T200 Evaluation software (2.0, GE), globally fitting data to derive kinetic parameters. All sensorgrams were fitted using a simple one-to-one binding model.
(§3) Protein was produced by transient expression, purified by ProA chromatography and prep SEC.

Human OX40 ECD-AFH = target: T3, Human OX40 ECD-AFH; experiment: SPR, construct captured, monomeric ECD as analyte
Experimental: as §1, §2, §3

Fc gamma receptor RI = target: T6, Fc gamma receptor RI (human, UniProt P12314 16-288); experiment: SPR, construct immobilized, receptor injected at 100 nM
T6 construct: also called FcγRI
Experimental: (§4) Fcγ receptor binding to bispecific proteins was measured by Surface Plasmon Resonance on a Biacore 8K instrument at room temperature. Bispecific proteins with modified Fc regions to reduce binding to Fcγ receptors were directly immobilized on the surface of a CM5 sensor chip to a surface density of 4000 RU. A bispecific ADAPTIR™ protein with a wild type Fc was similarly immobilized to the surface as a positive control and used as a comparator to evaluate the reduction in binding resulting from changes incorporated into the Fc region amino acid sequence. Fcγ receptors (purchased from R&D Systems) were diluted to either 100 nM (FcγRI) or 2 μM (all other Fcγ receptors) in HBS-EP+ buffer before injecting over the surface of the prepared sensor chip at 30 μL/min for 60 seconds. Maximum RU values during association phase of each injection were used to compare the extent of binding of the modified Fc to wild type value and are reported in Table 17 below.

Full-length Cyno OX40 [4] = target: T1, Full-length Cyno OX40; experiment: flow cytometry on CHOK1SV cells transfected with cynomolgus OX40, goat anti-human Fc secondary antibody, MFI (Mean)
Experimental: Serial dilutions of ADAPTIR™ constructs were incubated with cells transfected with human or cynomolgus ECD and subsequently labelled with a fluorescently-conjugated goat-α-human Fc secondary antibody. […] (See Example 16.)

Fc gamma receptor RIIIB = target: T7, Fc gamma receptor RIIIB (human, UniProt O75015 17-200); experiment: SPR, construct immobilized, receptor injected at 2 uM
T7 construct: soluble SPR analyte
Experimental: as §4

[5] = target: T8, Fc gamma receptor RIIIA V176 (human, UniProt P08637 17-208); experiment: as above
T8 construct: soluble SPR analyte
Experimental: as §4

T6 sequence (P12314 16-288 limits assumed): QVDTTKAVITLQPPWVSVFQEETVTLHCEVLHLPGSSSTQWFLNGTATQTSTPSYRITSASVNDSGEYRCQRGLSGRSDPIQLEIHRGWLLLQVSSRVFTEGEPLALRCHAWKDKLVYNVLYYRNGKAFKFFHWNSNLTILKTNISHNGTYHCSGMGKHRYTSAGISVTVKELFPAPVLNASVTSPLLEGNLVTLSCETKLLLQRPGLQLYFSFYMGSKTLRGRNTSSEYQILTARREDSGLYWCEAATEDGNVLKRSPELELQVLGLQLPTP
T4 sequence (Q07011 24-255): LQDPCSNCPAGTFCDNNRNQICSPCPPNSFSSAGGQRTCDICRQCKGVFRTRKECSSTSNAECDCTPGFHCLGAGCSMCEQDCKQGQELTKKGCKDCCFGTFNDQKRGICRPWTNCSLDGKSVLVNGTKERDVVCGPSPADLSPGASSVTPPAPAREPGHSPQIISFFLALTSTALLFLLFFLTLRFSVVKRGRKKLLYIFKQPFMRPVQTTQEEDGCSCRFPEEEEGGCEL
T5 sequence (chain, as listed by the source limits assumed): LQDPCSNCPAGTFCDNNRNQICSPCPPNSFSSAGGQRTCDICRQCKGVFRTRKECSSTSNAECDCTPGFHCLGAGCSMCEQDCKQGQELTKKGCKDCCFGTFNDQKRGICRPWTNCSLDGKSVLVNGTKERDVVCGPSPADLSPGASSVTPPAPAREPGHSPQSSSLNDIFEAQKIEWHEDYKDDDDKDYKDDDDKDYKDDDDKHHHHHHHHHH
T8 sequence (P08637 17-208 F176V): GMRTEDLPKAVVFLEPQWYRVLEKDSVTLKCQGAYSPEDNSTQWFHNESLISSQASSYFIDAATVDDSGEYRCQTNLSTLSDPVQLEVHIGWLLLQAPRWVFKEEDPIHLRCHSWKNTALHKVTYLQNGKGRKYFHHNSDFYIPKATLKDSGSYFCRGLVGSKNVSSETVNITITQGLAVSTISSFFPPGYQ
T7 sequence (O75015 17-200): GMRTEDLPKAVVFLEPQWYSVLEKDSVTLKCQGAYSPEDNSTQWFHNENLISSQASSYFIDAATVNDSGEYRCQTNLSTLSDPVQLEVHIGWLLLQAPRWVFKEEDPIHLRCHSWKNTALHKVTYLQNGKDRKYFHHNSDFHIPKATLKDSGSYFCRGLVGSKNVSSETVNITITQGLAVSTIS

Binder | EC50 (read off the curve) (Full-length Cyno OX40 [1]) | OX40 Reporter Assay EC50 (Full-length Human OX40) | OX40 Reporter Assay Max induction (Full-length Human OX40) | 4-1BB Reporter Assay EC50 (Full-length Human 4-1BB [2]) | 4-1BB Reporter Assay Max induction (Full-length Human 4-1BB [2]) | 4-1BB Reporter Assay EC50 (Full-length Human 4-1BB [3]) | 4-1BB Reporter Assay Max induction (Full-length Human 4-1BB [3]) | Kd (Human 4-1BB ECD-AFH) | koff (Human 4-1BB ECD-AFH) | kon (Human 4-1BB ECD-AFH) | Kd (Human OX40 ECD-AFH) | koff (Human OX40 ECD-AFH) | kon (Human OX40 ECD-AFH) | Max RU value during association (Fc gamma receptor RI) | EC50 (read off the curve) (Full-length Cyno OX40 [4]) | Max RU value during association (Fc gamma receptor RIIIB) | Max RU value during association [5]
B1 | ~1000 pM | 12 pM | 1.99e+06 | 18 pM | 5.5e+06 | 19 pM | 6.1e+06 | 15000 pM | 0.0045 s⁻¹ | 290000 M⁻¹ s⁻¹ | 500 pM | 0.00031 s⁻¹ | 680000 M⁻¹ s⁻¹ | 0 RU | ~2000 pM | – | –
B2 | ~800 pM | 10 pM | 2.05e+06 | 14 pM | 6.94e+06 | – | – | 15000 pM | 0.0043 s⁻¹ | 290000 M⁻¹ s⁻¹ | 400 pM | 0.0003 s⁻¹ | 710000 M⁻¹ s⁻¹ | – | – | – | –
B3 | – | – | – | – | – | – | – | – | – | – | – | – | – | 0 RU | – | – | –
B4 | – | – | – | – | – | – | – | – | – | – | – | – | – | – | – | 0 RU | 0 RU
B5 | – | – | – | – | – | – | – | – | – | – | – | – | – | – | – | – | 0 RU
B6 | ~800 pM | 11 pM | 2.03e+06 | 19 pM | 6.96e+06 | – | – | 16000 pM | 0.0046 s⁻¹ | 290000 M⁻¹ s⁻¹ | 600 pM | 0.00041 s⁻¹ | 630000 M⁻¹ s⁻¹ | 0 RU | – | – | –
